Test results published in patent US20230391853A1 (FAPON BIOTECH, published 2023).

Biological target: T1, 2019-nCoV N protein antigen (2019-nCoV (novel coronavirus), UniProt P0DTC9 1-419)
T1 construct: Coated on plates in ELISA; in solution in the AMC sensor assay; also called N protein of the novel coronavirus; nucleocapsid protein (N protein)
Assay: AMC sensor kinetics, antibody captured
Protocol: Operational process: equilibrium was performed in buffer 1 (PBST) for 60 s, the antibody was cured in an antibody solution for 300 s, incubation was performed in buffer 2 (PBST) for 180 s, binding was performed in an antigen solution for 420 s, dissociation was performed in buffer 2 for 1200 s, sensor regeneration was performed with a 10 mM pH 1.69 GLY solution and buffer 3, and data were outputted. KD represents an equilibrium dissociation constant, that was, the affinity; kon represents the binding rate; and kdis represents the dissociation rate.

B1: WT (antibody, mouse IgG1, kappa, V domains shown)
VH: DVQLVESGGGLVQPGGSRKLSCAASGVTFSTFAMHWVRQAPEKGLEWVAYLNSASNLIYYADTLKGRFTISRDNPKNTLFLQMTSLRSEDTAMYYCTRHAMDYWGQGTSVTVSS
VL: DIVLTQSPASLAVSLGQRATISCKASQSIDYDGDSFMNWFQQKPGQPPKLLIYDASNVESGIPARFSGSGSGTDFTLNIHPVEEEDAATYYCQHSNEDPYTFGGGTKLEIKR
notes: also called VT; antibody in Embodiment 1
- Kd: 8.03 nM
- koff: 0.00141 s⁻¹
- kon: 175000 M⁻¹ s⁻¹
